This is an account of results in patent publication US7056508 (NEW YORK UNIVERSITY, dated 2006).

To fix the notation:
B1: K2AP fusion protein (amino acids 1-639 of the RPTPκ proprotein fused to human placental alkaline phosphatase) (other)
chain: ALGQFSAGGCTFDDGPGACDYHQDLYDDFEWVHVSAQEPHYLPPEMPQGSYMVVDSSNHDPGEKARLQLPTMKENDTHCIDFSYLLYSQKGLNPGTLNILVRVNKGPLANPIWNVTGFTGRDWLRAELAVSTFWPNEYQVIFEAEVSGGRSGYIAIDDIQVLSYPCDKSPHFLRLGDVEVNAGQNATFQCIATGRDAVHNKLWLQRRNGEDIPVAQTKNINHRRFAASFRLQEVTKTDQDLYRCVTQSERGSGVSNFAQLIVREPPRPIAPPQLLGVGPTYLLIQLNANSIIGDGPIILKEVEYRMTSGSWTETHAVNAPTYKLWHLDPDTEYEIRVLLTRPGEGGTGLPGPPLITRTKCAEPMRTPKTLKIAEIQARRIAVDWESLGYNITRCHTFNVTICYHYFRGHNESRADCLDMDPKAPQHVVNHLPPYTNVSLKMILTNPEGRKESEETIIQTDEDVPGPVPVKSLQGTSFENKIFLNWKEPLEPNGIITQYEVSYSSIRSFDPAVPVAGPPQTVSNLWNSTHHVFMHLHPGTTYQFFIRASTVKGFGPATAINVTTNISAPSLPDYEGVDASLNETATTITVLLRPAQAKGAPISAYQIVVEQLHPH
notes: Secreted from baculovirus-infected High-Five cells and about 90% pure; K2AP-a was eluted at alkaline pH and K2AP-b with 50% ethylene glycol; they are the same protein; also called K2AP-a; K2AP-b; not shown: human placental alkaline phosphatase, fused in-frame as a tag
B2: secreted alkaline phosphatase (AP) control protein (enzyme, human, UniProt P05187 23-511, looked up)
chain: IIPVEEENPDFWNREAAEALGAAKKLQPAQTAAKNLIIFLGDGMGVSTVTAARILKGQKKDKLGPEIPLAMDRFPYVALSKTYNVDKHVPDSGATATAYLCGVKGNFQTIGLSAAARFNQCNTTRGNEVISVMNRAKKAGKSVGVVTTTRVQHASPAGTYAHTVNRNWYSDADVPASARQEGCQDIATQLISNMDIDVILGGGRKYMFRMGTPDPEYPDDYSQGGTRLDGKNLVQEWLAKRQGARYVWNRTELMQASLDPSVTHLMGLFEPGDMKYEIHRDSTLDPSLMEMTEAALRLLSRNPRGFFLFVEGGRIDHGHHESRAYRALTETIMFDDAIERAGQLTSEEDTLSLVTADHSHVFSFGGYPLRGSSIFGLAPGKARDRKAYTVLLYGNGPGYVLKDGARPDVTESESGSPEYRQQSAVPLDEETHAGEDVAVFARGPQAHLVHGVQEQTFIAHVMAFAACLEPYTACDLAPPAGTTDAAHPG
notes: About 50% pure; also called alkaline phosphatase control protein
B3: murine receptor-type protein tyrosine phosphatase-κ (RPTPκ) precursor protein (receptor)
chain: ALGQFSAGGCTFDDGPGACDYHQDLYDDFEWVHVSAQEPHYLPPEMPQGSYMVVDSSNHDPGEKARLQLPTMKENDTHCIDFSYLLYSQKGLNPGTLNILVRVNKGPLANPIWNVTGFTGRDWLRAELAVSTFWPNEYQVIFEAEVSGGRSGYIAIDDIQVLSYPCDKSPHFLRLGDVEVNAGQNATFQCIATGRDAVHNKLWLQRRNGEDIPVAQTKNINHRRFAASFRLQEVTKTDQDLYRCVTQSERGSGVSNFAQLIVREPPRPIAPPQLLGVGPTYLLIQLNANSIIGDGPIILKEVEYRMTSGSWTETHAVNAPTYKLWHLDPDTEYEIRVLLTRPGEGGTGLPGPPLITRTKCAEPMRTPKTLKIAEIQARRIAVDWESLGYNITRCHTFNVTICYHYFRGHNESRADCLDMDPKAPQHVVNHLPPYTNVSLKMILTNPEGRKESEETIIQTDEDVPGPVPVKSLQGTSFENKIFLNWKEPLEPNGIITQYEVSYSSIRSFDPAVPVAGPPQTVSNLWNSTHHVFMHLHPGTTYQFFIRASTVKGFGPATAINVTTNISAPSLPDYEGVDASLNETATTITVLLRPAQAKGAPISAYQIVVEQLHPHRTKREAGAMECYQVPVTYQNALSGGAPYYFAAELPPGNLPEPAPFTVGDNRTYKGFWNPPLAPRKGYNIYFQAMSSVEKETKTQCVRIATKAAATEEPEVIPDPAKQTDRVVKIAGISAGILVFILLLLVVIVIVKKSKLAKKRKDAMGNTRQEMTHMVNAMDRSYADQSTLHAEDPLSLTFMDQHNFSPRLPNDPLVPTAVLDENHSATAESSRLLDVPRYLCEGTESPYQTGQLHPAIRVADLLQHINLMKTSDSYGFKEEYESFFEGQSASWDVAKKDQNRAKNRYGNIIAYDHSRVILQPVEDDPSSDYINANYIDIWLYRDGYQRPSHYIATQGPVHETVYDFWRMVWQEQSACIVMVTNLVEVGRVKCYKYWPDDTEVYGDFKVTCVEMEPLAEYVVRTFTLERRGYNEIREVKQFHFTGWPDHGVPYHATGLLSFIRRVKLSNPPSAGPIVVHCSAGAGRTGCYIVIDIMLDMAEREGVVDIYNCVKALRSRRINMVQTEEQYIFIHDAILEACLCGETAIPVCEFKAAYFDMIRIDSQTNSSHLKDEFQTLNSVTPRLQAEDCSIACLPRNHDKNRFMDMLPPDRCLPFLITIDGESSNYINAALMDSYRQPAAFIVTQYPLPNTVKDFWRLVYDYGCTSIVMLNEVDLSQGCPQYWPEEGMLRYGPIQVECMSCSMDCDVINRIFRICNLTRPQEGYLMVQQFQYLGWASHREVPGSKRSFLKLILQVEKWQEECEEGEGRTIIHCLNGGGRSGMFCAIGIVVEMVKRQNVVDVFHAVKTLRNSKPNMVEAPEQYRFCYDVALEYLESS
notes: Full-length cDNA expressed in HeLa, COS, Drosophila S2 and rat L6 cells, tested on cells or in their lysates; It is partly cleaved at RTKR (640-643) into 110 kDa and 100 kDa products; also called RPTPase-κ; wt RPTPκ

For series [1], the target named is B3. Briefly: cell-to-substrate adhesion, L6 cells on a K2AP-coated surface.
In series [2] the target is B3. Briefly: cell-to-substrate adhesion, induced S2-R-PTP-κ cells on the coated dish.
The target of series [3] is [32P]-tyrosine phosphorylated myelin basic protein. Briefly: cell-based or functional assay.
Series [4] concerns the molecule itself. Briefly: co-aggregation of diI-labelled and unlabelled S2 cells, fluorescence microscopy. The source says: FIGS. 23A–23C. […] Two different cell populations, one of which had been labeled with the fluorescent dye diI (J. Schiessinger et al. Science 195, 307, (1977)), were allowed to co-aggregate and the resulting aggregates inspected by visible and fluorescence microscopy. diI-fluorescence is white in the photographs.

Sequence of [32P]-tyrosine phosphorylated myelin basic protein (P02687 whole entry): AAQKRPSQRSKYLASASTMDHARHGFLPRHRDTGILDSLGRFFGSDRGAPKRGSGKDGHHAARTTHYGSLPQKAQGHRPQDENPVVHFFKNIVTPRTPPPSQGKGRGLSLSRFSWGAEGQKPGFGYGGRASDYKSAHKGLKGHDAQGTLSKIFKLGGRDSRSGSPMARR

On to B1, for which the “fold increase in adhesive capacity (RPTPκ-overexpressing L6 cells against parental L6 cells)” value in series [1] was 2.7 fold. Take B2: in series [2], the binding result is “no binding (tested: 20 g/ml (so in the source) spotted)”. For B3, the “PTPase activity in immune complexes (release of [32P]-phosphate)” value in series [3] is ~3 fold. Besides, the binding result in series [4] is recorded as “binds”.
